Test results published in IntAct's records for PubMed 35512704.

B1: Mothers against decapentaplegic homolog 4 (Homo sapiens), Q13485 (parent)
chain: MDNMSITNTPTSNDACLSIVHSLMCHRQGGESETFAKRAIESLVKKLKEKKDELDSLITAITTNGAHPSKCVTIQRTLDGRLQVAGRKGFPHVIYARLWRWPDLHKNELKHVKYCQYAFDLKCDSVCVNPYHYERVVSPGIDLSGLTLQSNAPSSMMVKDEYVHDFEGQPSLSTEGHSIQTIQHPPSNRASTETYSTPALLAPSESNATSTANFPNIPVASTSQPASILGGSHSEGLLQIASGPQPGQQQNGFTGQPATYHHNSTTTWTGSRTAPYTPNLPHHQNGHLQHHPPMPPHPGHYWPVHNELAFQPPISNHPAPEYWCSIAYFEMDVQVGETFKVPSSCPIVTVDGYVDPSGGDRFCLGQLSNVHRTEAIERARLHIGKGVQLECKGEGDVWVRCLSDHAVFVQSYYLDREAGRAPGDAVHKIYPSAYIKVFDLRQCHRQMQQQAATAQAAAAAQAAAVAGNIPGPGSVGGIAPAISLSAAAGIGVDDLRRLCILRMSFVKGWGPDYPRQSIKETPCWIEIHLHRALQLLDEVLHTMPIADPQPLD

Variants of: B1
Conditions: with p85b_human PIK3R2, O00459

effect of a mutation on the interaction	Variant
with no effect	G386D

Variants of: B1
Conditions: with dpod1_human POLD1, P28340
Sequence of dpod1_human POLD1, P28340 (P28340 whole entry): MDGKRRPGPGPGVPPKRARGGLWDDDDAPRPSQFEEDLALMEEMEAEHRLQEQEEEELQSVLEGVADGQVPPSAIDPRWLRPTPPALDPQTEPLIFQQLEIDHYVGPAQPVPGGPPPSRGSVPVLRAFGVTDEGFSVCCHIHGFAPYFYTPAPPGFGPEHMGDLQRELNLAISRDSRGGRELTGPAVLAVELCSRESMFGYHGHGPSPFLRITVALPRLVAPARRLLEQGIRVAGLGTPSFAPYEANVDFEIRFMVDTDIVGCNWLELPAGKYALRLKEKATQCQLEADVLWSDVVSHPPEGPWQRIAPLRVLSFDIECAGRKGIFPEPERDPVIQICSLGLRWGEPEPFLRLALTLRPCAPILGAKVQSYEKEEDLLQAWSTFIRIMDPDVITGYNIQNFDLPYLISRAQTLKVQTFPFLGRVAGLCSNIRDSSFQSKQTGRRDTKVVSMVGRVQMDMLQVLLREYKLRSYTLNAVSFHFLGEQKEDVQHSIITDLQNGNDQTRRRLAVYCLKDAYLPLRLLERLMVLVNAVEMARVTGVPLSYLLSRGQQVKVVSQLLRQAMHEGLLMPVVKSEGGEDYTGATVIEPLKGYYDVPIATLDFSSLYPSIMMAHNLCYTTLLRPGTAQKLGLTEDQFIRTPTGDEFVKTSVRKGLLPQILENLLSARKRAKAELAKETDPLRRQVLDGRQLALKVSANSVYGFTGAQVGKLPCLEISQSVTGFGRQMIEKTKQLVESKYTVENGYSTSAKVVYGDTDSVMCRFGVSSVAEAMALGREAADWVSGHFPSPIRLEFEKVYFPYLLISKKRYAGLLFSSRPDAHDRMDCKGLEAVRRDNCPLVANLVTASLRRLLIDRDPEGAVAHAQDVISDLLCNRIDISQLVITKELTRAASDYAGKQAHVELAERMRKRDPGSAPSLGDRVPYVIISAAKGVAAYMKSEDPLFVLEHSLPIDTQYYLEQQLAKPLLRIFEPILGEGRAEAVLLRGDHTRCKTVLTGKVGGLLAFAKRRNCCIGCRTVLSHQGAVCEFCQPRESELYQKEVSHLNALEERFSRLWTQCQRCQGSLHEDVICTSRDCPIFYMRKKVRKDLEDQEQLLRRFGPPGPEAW

effect of a mutation on the interaction	Variant
with no effect	G386D

Variants of: B1
Conditions: with dpoe1_human POLE

effect of a mutation on the interaction	Variant
with no effect	G386D

Variants of: B1
Conditions: with 2aaa_human PPP2R1A

effect of a mutation on the interaction	Variant
with no effect	G386D

Variants of: B1
Conditions: with prdm1_human PRDM1, O75626

effect of a mutation on the interaction	Variant
with no effect	G386D

Variants of: B1
Conditions: with aapk2_human PRKAA2, P54646

effect of a mutation on the interaction	Variant
with no effect	G386D

Variants of: B1
Conditions: with aakb2_human PRKAB2, O43741

effect of a mutation on the interaction	Variant
with no effect	G386D

Variants of: B1
Conditions: with prss8_human PRSS8, Q16651

effect of a mutation on the interaction	Variant
with no effect	G386D

Variants of: B1
Conditions: with ptk6_human PTK6, Q13882

effect of a mutation on the interaction	Variant
with no effect	G386D

Variants of: B1
Conditions: with tf65_human RELA

effect of a mutation on the interaction	Variant
with no effect	G386D

Variants of: B1
Conditions: with rheb_human RHEB

effect of a mutation on the interaction	Variant
with no effect	G386D

Variants of: B1
Conditions: with rictr_human RICTOR

effect of a mutation on the interaction	Variant
with no effect	G386D

Variants of: B1
Conditions: with rnf43_human RNF43, Q68DV7

effect of a mutation on the interaction	Variant
with no effect	G386D

Variants of: B1
Conditions: with ros1_human ROS1, P08922

effect of a mutation on the interaction	Variant
with no effect	G386D

Variants of: B1
Conditions: with rl5_human RPL5, P46777

effect of a mutation on the interaction	Variant
with no effect	G386D

Variants of: B1
Conditions: with ks6b1_human RPS6KB1, P23443

effect of a mutation on the interaction	Variant
with no effect	G386D

Variants of: B1
Conditions: with rptor_human RPTOR

effect of a mutation on the interaction	Variant
with no effect	G386D

Variants of: B1
Conditions: with runx1_human RUNX1, Q01196

effect of a mutation on the interaction	Variant
with no effect	G386D

Variants of: B1
Conditions: with ruvb1_human RUVBL1, Q9Y265

effect of a mutation on the interaction	Variant
with no effect	G386D

Variants of: B1
Conditions: with sdha_human SDHA

effect of a mutation on the interaction	Variant
with no effect	G386D

Variants of: B1
Conditions: with setb1_human SETDB1, Q15047

effect of a mutation on the interaction	Variant
with no effect	G386D

Variants of: B1
Conditions: with skp2_human SKP2, Q13309

effect of a mutation on the interaction	Variant
with no effect	G386D

Variants of: B1
Conditions: with smad1_human SMAD1, Q15797

effect of a mutation on the interaction	Variant
with no effect	G386D

Variants of: B1
Conditions: with smad2_human SMAD2, Q15796
Sequence of smad2_human SMAD2, Q15796 (Q15796 whole entry): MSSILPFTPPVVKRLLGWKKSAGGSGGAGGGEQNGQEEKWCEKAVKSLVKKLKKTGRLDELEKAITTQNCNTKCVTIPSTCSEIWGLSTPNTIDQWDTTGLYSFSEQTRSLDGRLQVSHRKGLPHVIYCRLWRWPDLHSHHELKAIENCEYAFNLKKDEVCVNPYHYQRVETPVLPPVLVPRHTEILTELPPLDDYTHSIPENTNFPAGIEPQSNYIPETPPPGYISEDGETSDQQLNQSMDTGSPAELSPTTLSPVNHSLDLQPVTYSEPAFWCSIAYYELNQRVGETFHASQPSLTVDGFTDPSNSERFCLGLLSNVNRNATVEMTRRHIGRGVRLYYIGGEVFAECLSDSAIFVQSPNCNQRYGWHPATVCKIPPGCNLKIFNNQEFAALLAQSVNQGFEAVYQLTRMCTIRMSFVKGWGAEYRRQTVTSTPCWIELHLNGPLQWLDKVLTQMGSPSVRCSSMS

effect of a mutation on the interaction	Variant
with no effect	G386D

Variants of: B1
Conditions: with smad3_human SMAD3, P84022
Sequence of smad3_human SMAD3, P84022 (P84022 whole entry, looked up): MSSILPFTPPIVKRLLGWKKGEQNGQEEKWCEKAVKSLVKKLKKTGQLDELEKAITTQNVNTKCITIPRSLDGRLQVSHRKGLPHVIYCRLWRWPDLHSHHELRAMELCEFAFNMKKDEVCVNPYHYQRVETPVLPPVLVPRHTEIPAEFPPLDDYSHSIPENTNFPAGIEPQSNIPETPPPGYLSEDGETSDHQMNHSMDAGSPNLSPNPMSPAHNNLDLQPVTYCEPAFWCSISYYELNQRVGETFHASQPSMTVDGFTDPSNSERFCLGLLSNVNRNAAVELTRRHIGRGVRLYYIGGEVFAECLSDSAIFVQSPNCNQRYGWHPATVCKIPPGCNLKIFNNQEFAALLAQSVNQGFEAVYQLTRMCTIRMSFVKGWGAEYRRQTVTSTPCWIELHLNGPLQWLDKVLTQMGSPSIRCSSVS

effect of a mutation on the interaction	Variant
with no effect	G386D

Variants of: B1
Conditions: with smca4_human SMARCA4, P51532

effect of a mutation on the interaction	Variant
with no effect	G386D

Variants of: B1
Conditions: with snf5_human SMARCB1, Q12824

effect of a mutation on the interaction	Variant
with no effect	G386D

Variants of: B1
Conditions: with smo_human SMO

effect of a mutation on the interaction	Variant
with no effect	G386D

Variants of: B1
Conditions: with socs1_human SOCS1, O15524
Sequence of socs1_human SOCS1, O15524 (O15524 whole entry): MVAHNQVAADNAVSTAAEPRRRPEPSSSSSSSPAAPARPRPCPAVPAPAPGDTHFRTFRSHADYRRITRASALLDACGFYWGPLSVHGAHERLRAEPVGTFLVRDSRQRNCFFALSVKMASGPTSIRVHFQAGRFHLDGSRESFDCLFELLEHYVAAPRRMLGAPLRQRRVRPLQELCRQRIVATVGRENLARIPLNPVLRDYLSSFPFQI

effect of a mutation on the interaction	Variant
with no effect	G386D

Variants of: B1
Conditions: with sox10_human SOX10, P56693

effect of a mutation on the interaction	Variant
with no effect	G386D

Variants of: B1
Conditions: with sox2_human SOX2, P48431

effect of a mutation on the interaction	Variant
with no effect	G386D

Variants of: B1
Conditions: with sox3_human SOX3, P41225

effect of a mutation on the interaction	Variant
with no effect	G386D

Variants of: B1
Conditions: with sox4_human SOX4, Q06945

effect of a mutation on the interaction	Variant
with no effect	G386D

Variants of: B1
Conditions: with sox9_human SOX9, P48436

effect of a mutation on the interaction	Variant
with no effect	G386D

Variants of: B1
Conditions: with spop_human SPOP

effect of a mutation on the interaction	Variant
with no effect	G386D

Variants of: B1
Conditions: with src_human SRC

effect of a mutation on the interaction	Variant
with no effect	G386D

Variants of: B1
Conditions: with stat3_human STAT3, P40763

effect of a mutation on the interaction	Variant
with no effect	G386D

Variants of: B1
Conditions: with stk38_human STK38, Q15208

effect of a mutation on the interaction	Variant
with no effect	G386D

Variants of: B1
Conditions: with ksyk_human SYK

effect of a mutation on the interaction	Variant
with no effect	G386D

Variants of: B1
Conditions: with eloc_human ELOC

effect of a mutation on the interaction	Variant
with no effect	G386D

Variants of: B1
Conditions: with tfe2_human TCF3, P15923
Sequence of tfe2_human TCF3, P15923 (P15923 whole entry): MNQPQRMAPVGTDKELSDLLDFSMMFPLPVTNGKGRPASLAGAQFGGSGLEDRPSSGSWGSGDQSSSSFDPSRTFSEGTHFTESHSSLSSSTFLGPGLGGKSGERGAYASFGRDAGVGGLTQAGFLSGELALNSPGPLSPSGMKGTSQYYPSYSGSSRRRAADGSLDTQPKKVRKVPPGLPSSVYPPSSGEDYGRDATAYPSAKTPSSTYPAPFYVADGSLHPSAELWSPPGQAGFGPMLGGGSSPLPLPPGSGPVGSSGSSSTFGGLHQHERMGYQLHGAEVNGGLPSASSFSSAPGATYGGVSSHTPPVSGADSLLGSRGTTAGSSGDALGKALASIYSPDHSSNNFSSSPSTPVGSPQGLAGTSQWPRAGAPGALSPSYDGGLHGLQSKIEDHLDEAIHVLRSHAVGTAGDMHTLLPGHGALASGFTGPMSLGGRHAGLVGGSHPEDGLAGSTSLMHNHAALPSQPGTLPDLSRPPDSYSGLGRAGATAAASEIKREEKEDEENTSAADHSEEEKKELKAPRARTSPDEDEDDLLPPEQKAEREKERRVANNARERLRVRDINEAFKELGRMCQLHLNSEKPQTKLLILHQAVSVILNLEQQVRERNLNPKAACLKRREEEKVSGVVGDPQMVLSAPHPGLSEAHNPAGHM

effect of a mutation on the interaction	Variant
with no effect	G386D

Variants of: B1
Conditions: with tead1_human TEAD1, P28347

effect of a mutation on the interaction	Variant
with no effect	G386D

Variants of: B1
Conditions: with tead2_human TEAD2, Q15562

effect of a mutation on the interaction	Variant
with no effect	G386D

Variants of: B1
Conditions: with tead3_human TEAD3, Q99594

effect of a mutation on the interaction	Variant
with no effect	G386D

Variants of: B1
Conditions: with tet2_human TET2, Q6N021

effect of a mutation on the interaction	Variant
with no effect	G386D

Variants of: B1
Conditions: with tgfr2_human TGFBR2, P37173

effect of a mutation on the interaction	Variant
with no effect	G386D

Variants of: B1
Conditions: with tnr14_human TNFRSF14, Q92956

effect of a mutation on the interaction	Variant
with no effect	G386D

Variants of: B1
Conditions: with tpx2_human TPX2, Q9ULW0

effect of a mutation on the interaction	Variant
with no effect	G386D

Variants of: B1
Conditions: with trrap_human TRRAP

effect of a mutation on the interaction	Variant
with no effect	G386D

Variants of: B1
Conditions: with tsc2_human TSC2, P49815

effect of a mutation on the interaction	Variant
with no effect	G386D

Variants of: B1
Conditions: with tshr_human TSHR

effect of a mutation on the interaction	Variant
with no effect	G386D

Variants of: B1
Conditions: with vhl_human VHL

effect of a mutation on the interaction	Variant
with no effect	G386D

Variants of: B1
Conditions: with wt1_human WT1, P19544

effect of a mutation on the interaction	Variant
with no effect	G386D

Variants of: B1
Conditions: with wwtr1_human WWTR1, Q9GZV5

effect of a mutation on the interaction	Variant
with no effect	G386D

Variants of: B1
Conditions: with xirp2_human XIRP2, A4UGR9

effect of a mutation on the interaction	Variant
with no effect	G386D

Variants of: B1
Conditions: with xpo1_human XPO1, O14980

effect of a mutation on the interaction	Variant
with no effect	G386D

Variants of: B1
Conditions: with 1433e_human YWHAE

effect of a mutation on the interaction	Variant
with no effect	G386D

Variants of: B1
Conditions: with 1433z_human YWHAZ

effect of a mutation on the interaction	Variant
with no effect	G386D

Variants of: B1
Conditions: with arc1a_human ARPC1A

effect of a mutation on the interaction	Variant
increasing interaction strength	G386D

Variants of: B1
Conditions: with axin2_human AXIN2, Q9Y2T1

effect of a mutation on the interaction	Variant
increasing interaction strength	G386D

Variants of: B1
Conditions: with btg1_human BTG1, P62324
Sequence of btg1_human BTG1, P62324 (P62324 whole entry): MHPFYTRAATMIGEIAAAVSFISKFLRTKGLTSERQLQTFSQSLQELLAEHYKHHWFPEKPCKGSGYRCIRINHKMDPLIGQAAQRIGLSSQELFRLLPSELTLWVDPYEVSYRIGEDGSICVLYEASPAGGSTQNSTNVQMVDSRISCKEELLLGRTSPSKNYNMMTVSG

effect of a mutation on the interaction	Variant
increasing interaction strength	G386D

Variants of: B1
Conditions: with erbb3_human ERBB3, P21860

effect of a mutation on the interaction	Variant
increasing interaction strength	G386D

Variants of: B1
Conditions: with gna13_human GNA13, Q14344

effect of a mutation on the interaction	Variant
increasing interaction strength	G386D

Variants of: B1
Conditions: with gsk3b_human GSK3B

effect of a mutation on the interaction	Variant
increasing interaction strength	G386D

Variants of: B1
Conditions: with hdac1_human HDAC1, Q13547

effect of a mutation on the interaction	Variant
increasing interaction strength	G386D

Variants of: B1
Conditions: with hnf1a_human HNF1A

effect of a mutation on the interaction	Variant
increasing interaction strength	G386D

Variants of: B1
Conditions: with notc2_human NOTCH2, Q04721

effect of a mutation on the interaction	Variant
causing an interaction	G386D

Variants of: B1
Conditions: with ntrk2_human NTRK2, Q16620

effect of a mutation on the interaction	Variant
causing an interaction	G386D

Variants of: B1
Conditions: with dpod1_human POLD1, P28340
Remark: another data set of the same source

effect of a mutation on the interaction	Variant
increasing interaction strength	G386D

Variants of: B1
Conditions: with socs1_human SOCS1, O15524
Remark: another data set of the same source

effect of a mutation on the interaction	Variant
increasing interaction strength	G386D

Variants of: B1
Conditions: with tshr_human TSHR
Remark: another data set of the same source

effect of a mutation on the interaction	Variant
increasing interaction strength	G386D

Variants of: B1
Conditions: with smad2_human SMAD2, Q15796
Remark: another data set of the same source

effect of a mutation on the interaction	Variant
disrupting interaction strength	G386D

Variants of: B1
Conditions: with smad3_human SMAD3, P84022
Remark: another data set of the same source

effect of a mutation on the interaction	Variant
decreasing interaction strength	G386D

Variants of: B1
Conditions: with cdk6_human CDK6, Q00534

effect of a mutation on the interaction	Variant
decreasing interaction strength	G386D

Variants of: B1
Conditions: with ccnd1_human CCND1, P24385

effect of a mutation on the interaction	Variant
decreasing interaction strength	G386D

Variants of: B1
Conditions: with akt1_human AKT1, P31749

effect of a mutation on the interaction	Variant
decreasing interaction strength	G386D

Variants of: B1
Conditions: with pk3cb_human PIK3CB

effect of a mutation on the interaction	Variant
decreasing interaction strength	G386D

Variants of: B1
Conditions: with jak1_human JAK1, P23458

effect of a mutation on the interaction	Variant
decreasing interaction strength	G386D

Variants of: B1
Conditions: with jak3_human JAK3, P52333

effect of a mutation on the interaction	Variant
decreasing interaction strength	G386D

Variants of: B1
Conditions: with baba2_human BABAM2, Q9NXR7

effect of a mutation on the interaction	Variant
increasing interaction strength	G386D
